B1: UBE2R2 (parent)
chain: DPQSGELPSERWNPTQNVRTILLS
B2: SPOPL (parent)
chain: YTGRAPNLDKMADNLLAAADKYAL

Variants of: B1
Test: protein stability index of a GFP-peptide fusion (GPS, HEK-293T) (PSI 1-6); higher = more stable
Settings: c terminus: a fixed tail appended
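Also: lentivirally expressed fusions sorted by FACS into six bins by GFP to DsRed ratio, PSI derived from sequencing read proportions per bin multiplied by bin number.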

Variant	protein stability index
DPQSGELPDERWNPTQNVRTILLS	3.86
DPQSGELPYERWNPTQNVRTILLS	2.92
DPQSGELPGERWNPTQNVRTILLS	3.27
DPQSGELPVERWNPTQNVRTILLS	3.81
DPQSGELPWERWNPTQNVRTILLS	2.58
DPQSGELPLERWNPTQNVRTILLS	3.76
DPQSGELPQERWNPTQNVRTILLS	3.35
DPQSGELPEERWNPTQNVRTILLS	3.95
DPQSGELPKERWNPTQNVRTILLS	3.94
DPQSGELPAERWNPTQNVRTILLS	4.37
DPQSGELPCERWNPTQNVRTILLS	3.9
DPQSGELPNERWNPTQNVRTILLS	3.8
DPQSGELPMERWNPTQNVRTILLS	3.87
DPQSGELPPERWNPTQNVRTILLS	3.43
DPQSGELPHERWNPTQNVRTILLS	3.47
DPQSGELPIERWNPTQNVRTILLS	4.09
DPQSGELPTERWNPTQNVRTILLS	3.98
DPQSGELPFERWNPTQNVRTILLS	2.4
DPQSGELPRERWNPTQNVRTILLS	3.43
IPQSGELPSERWNPTQNVRTILLS	2.67
RPQSGELPSERWNPTQNVRTILLS	3.17
VPQSGELPSERWNPTQNVRTILLS	2.35
QPQSGELPSERWNPTQNVRTILLS	3.88

Variant	protein stability index
CPQSGELPSERWNPTQNVRTILLS	3.93
SPQSGELPSERWNPTQNVRTILLS	2.25
NPQSGELPSERWNPTQNVRTILLS	3.09
LPQSGELPSERWNPTQNVRTILLS	3.58
EPQSGELPSERWNPTQNVRTILLS	3.31
KPQSGELPSERWNPTQNVRTILLS	3.7
GPQSGELPSERWNPTQNVRTILLS	3.26
FPQSGELPSERWNPTQNVRTILLS	2.58
APQSGELPSERWNPTQNVRTILLS	2.69
TPQSGELPSERWNPTQNVRTILLS	2.63
HPQSGELPSERWNPTQNVRTILLS	3.34
DPQSGEEPSERWNPTQNVRTILLS	4.02
DPQSGEPPSERWNPTQNVRTILLS	4.68
DPQSGEWPSERWNPTQNVRTILLS	2.62
DPQSGERPSERWNPTQNVRTILLS	3.81
DPQSGEKPSERWNPTQNVRTILLS	3.81
DPQSGESPSERWNPTQNVRTILLS	3.79
DPQSGEIPSERWNPTQNVRTILLS	3.35
DPQSGEQPSERWNPTQNVRTILLS	4.32
DPQSGEAPSERWNPTQNVRTILLS	4.25
DPQSGEVPSERWNPTQNVRTILLS	3.19
DPQSGEFPSERWNPTQNVRTILLS	3.2
DPQSGEYPSERWNPTQNVRTILLS	3.06

Variant	protein stability index
DPQSGEDPSERWNPTQNVRTILLS	4.51
DPQSGEHPSERWNPTQNVRTILLS	3.67
DPQSGECPSERWNPTQNVRTILLS	3.29
DPQSGENPSERWNPTQNVRTILLS	4.11
DPQSGEMPSERWNPTQNVRTILLS	3.71
DPQSGEGPSERWNPTQNVRTILLS	3.69
DPQSGETPSERWNPTQNVRTILLS	4.12
DTQSGELPSERWNPTQNVRTILLS	3.52
DVQSGELPSERWNPTQNVRTILLS	3.61
DMQSGELPSERWNPTQNVRTILLS	3.16
DRQSGELPSERWNPTQNVRTILLS	3.09
DQQSGELPSERWNPTQNVRTILLS	3.22
DAQSGELPSERWNPTQNVRTILLS	3.66
DLQSGELPSERWNPTQNVRTILLS	2.99
DHQSGELPSERWNPTQNVRTILLS	2.88
DGQSGELPSERWNPTQNVRTILLS	3.06
DKQSGELPSERWNPTQNVRTILLS	3.95
DNQSGELPSERWNPTQNVRTILLS	3.35
DWQSGELPSERWNPTQNVRTILLS	2.34
DFQSGELPSERWNPTQNVRTILLS	2.81
DIQSGELPSERWNPTQNVRTILLS	2.5
DEQSGELPSERWNPTQNVRTILLS	3.59
DPQSGELPSEDWNPTQNVRTILLS	3.88

Variant	protein stability index
DPQSGELPSEFWNPTQNVRTILLS	2.82
DPQSGELPSEEWNPTQNVRTILLS	4.44
DPQSGELPSEAWNPTQNVRTILLS	3.77
DPQSGELPSEGWNPTQNVRTILLS	4.23
DPQSGELPSECWNPTQNVRTILLS	3.76
DPQSGELFSERWNPTQNVRTILLS	3.27
DPQSGELDSERWNPTQNVRTILLS	3.68
DPQSGELCSERWNPTQNVRTILLS	4.2
DPQSGELVSERWNPTQNVRTILLS	3.33
DPQSGELLSERWNPTQNVRTILLS	3.55
DPQSGELQSERWNPTQNVRTILLS	3.57
DPQSGELASERWNPTQNVRTILLS	4.13
DPQSGELRSERWNPTQNVRTILLS	3.37
DPQSGELNSERWNPTQNVRTILLS	3.53
DPQSGELHSERWNPTQNVRTILLS	3.59
DPQSGELESERWNPTQNVRTILLS	3.82
DPQSGELKSERWNPTQNVRTILLS	3.58
DPQSGELTSERWNPTQNVRTILLS	3.06
DPQSGELMSERWNPTQNVRTILLS	3.66
DPQSGELISERWNPTQNVRTILLS	2.69
DPQSGELWSERWNPTQNVRTILLS	3.05
DPQSGELSSERWNPTQNVRTILLS	3.48
DPQSGELYSERWNPTQNVRTILLS	3.34

Variant	protein stability index
DPQVGELPSERWNPTQNVRTILLS	3.41
DPQDGELPSERWNPTQNVRTILLS	3.79
DPQHGELPSERWNPTQNVRTILLS	3.45
DPQAGELPSERWNPTQNVRTILLS	3.15
DPQQGELPSERWNPTQNVRTILLS	3.68
DPQNGELPSERWNPTQNVRTILLS	2.99
DPQYGELPSERWNPTQNVRTILLS	2.39
DPQKGELPSERWNPTQNVRTILLS	3.75
DPQCGELPSERWNPTQNVRTILLS	3.61
DPQFGELPSERWNPTQNVRTILLS	3.49
DPQMGELPSERWNPTQNVRTILLS	2.95
DPQLGELPSERWNPTQNVRTILLS	3.6
DPQPGELPSERWNPTQNVRTILLS	3.02
DPQTGELPSERWNPTQNVRTILLS	3.16
DPQRGELPSERWNPTQNVRTILLS	3.87
DPQIGELPSERWNPTQNVRTILLS	3.4
DPQSAELPSERWNPTQNVRTILLS	3.21
DPQSRELPSERWNPTQNVRTILLS	3.45
DPQSMELPSERWNPTQNVRTILLS	3.41
DPQSLELPSERWNPTQNVRTILLS	3.53
DPQSDELPSERWNPTQNVRTILLS	3.98
DPQSFELPSERWNPTQNVRTILLS	3.18
DPQSWELPSERWNPTQNVRTILLS	2.6

Variant	protein stability index
DPQSIELPSERWNPTQNVRTILLS	3.24
DPQSCELPSERWNPTQNVRTILLS	2.8
DPQSPELPSERWNPTQNVRTILLS	2.66
DPQSVELPSERWNPTQNVRTILLS	3.27
DPQSKELPSERWNPTQNVRTILLS	3.49
DPQSNELPSERWNPTQNVRTILLS	3.96
DPQSQELPSERWNPTQNVRTILLS	3.77
DPQSYELPSERWNPTQNVRTILLS	3.17
DPQSEELPSERWNPTQNVRTILLS	4.5
DPQSHELPSERWNPTQNVRTILLS	3.83
DPQSTELPSERWNPTQNVRTILLS	3.93
DPQSSELPSERWNPTQNVRTILLS	3.61
DPLSGELPSERWNPTQNVRTILLS	3.65
DPKSGELPSERWNPTQNVRTILLS	3.06
DPASGELPSERWNPTQNVRTILLS	3.67
DPRSGELPSERWNPTQNVRTILLS	3.4
DPPSGELPSERWNPTQNVRTILLS	3.01
DPHSGELPSERWNPTQNVRTILLS	3.22
DPFSGELPSERWNPTQNVRTILLS	4.05
DPMSGELPSERWNPTQNVRTILLS	3.53
DPDSGELPSERWNPTQNVRTILLS	3.9
DPSSGELPSERWNPTQNVRTILLS	3.41
DPCSGELPSERWNPTQNVRTILLS	3.81

Variant	protein stability index
DPESGELPSERWNPTQNVRTILLS	3.82
DPISGELPSERWNPTQNVRTILLS	3.24
DPTSGELPSERWNPTQNVRTILLS	4.11
DPGSGELPSERWNPTQNVRTILLS	3.79
DPNSGELPSERWNPTQNVRTILLS	3.45
DPYSGELPSERWNPTQNVRTILLS	2.42
DPQSGELPSIRWNPTQNVRTILLS	2.55
DPQSGELPSYRWNPTQNVRTILLS	2.71
DPQSGELPSSRWNPTQNVRTILLS	2.95
DPQSGELPSTRWNPTQNVRTILLS	3.48
DPQSGELPSRRWNPTQNVRTILLS	3.17
DPQSGELPSLRWNPTQNVRTILLS	2.98
DPQSGELPSCRWNPTQNVRTILLS	2.81
DPQSGELPSNRWNPTQNVRTILLS	3.35
DPQSGELPSARWNPTQNVRTILLS	2.98
DPQSGELPSHRWNPTQNVRTILLS	3.14
DPQSGELPSGRWNPTQNVRTILLS	2.84
DPQSGELPSMRWNPTQNVRTILLS	3.09
DPQSGELPSVRWNPTQNVRTILLS	2.6
DPQSGELPSFRWNPTQNVRTILLS	2.45
DPQSGELPSWRWNPTQNVRTILLS	2.39
DPQSGELPSPRWNPTQNVRTILLS	3.51
DPQSGELPSDRWNPTQNVRTILLS	3.43

Variant	protein stability index
DPQSGELPSQRWNPTQNVRTILLS	3.5
DPQSGELPSKRWNPTQNVRTILLS	3.05
DPQSGLLPSERWNPTQNVRTILLS	2.61
DPQSGILPSERWNPTQNVRTILLS	3.24
DPQSGNLPSERWNPTQNVRTILLS	3.48
DPQSGWLPSERWNPTQNVRTILLS	2.89
DPQSGFLPSERWNPTQNVRTILLS	2.3
DPQSGYLPSERWNPTQNVRTILLS	2.95
DPQSGTLPSERWNPTQNVRTILLS	3.37
DPQSGMLPSERWNPTQNVRTILLS	2.88
DPQSGDLPSERWNPTQNVRTILLS	3.44
DPQSGHLPSERWNPTQNVRTILLS	3.25
DPQSGALPSERWNPTQNVRTILLS	3.13
DPQSGPLPSERWNPTQNVRTILLS	2.8
DPQSGVLPSERWNPTQNVRTILLS	3.17
DPQSGSLPSERWNPTQNVRTILLS	3.1
DPQSGQLPSERWNPTQNVRTILLS	3.49
DPQSGKLPSERWNPTQNVRTILLS	2.79
DPQSGCLPSERWNPTQNVRTILLS	3.02
DPQSGGLPSERWNPTQNVRTILLS	3.3

Variants of: B2
Test: as above
Settings: c terminus: a fixed tail appended

Variant	protein stability index
YTGRAPNLDKMADNLLAAADKYAY	1.89
YTGRAPNLDKMADNLLAAADKYAR	2.24
YTGRAPNLDKMADNLLAAADKYAW	1.86
YTGRAPNLDKMADNLLAAADKYAQ	2.16
YTGRAPNLDKMADNLLAAADKYAS	2.73
YTGRAPNLDKMADNLLAAADKYAV	2
YTGRAPNLDKMADNLLAAADKYAT	2.42

Reference: the supplement of paper PMC10567573
